From the nanobody polyreactivity screen of Harvey et al. (2022) come the findings set out here.

This series can be described thus: yeast display, Sf9 membrane polyspecificity reagent, FACS + sequencing; frameworks hold sequencing errors. A digest of the protocol:
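Sorting gates, low and high (top ~1%), were placed on anti-HA fluorescence to track expression and on streptavidin fluorescence to track reagent binding. A clone's polyreactivity label is taken from the gate it came out of. The reagent was 10% biotinylated, detergent-solubilized Sf9 membrane, applied for 1 hour at 4 °C to galactose-induced yeast display cells.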
“QVQLVESGGGLVQAGGSLRLSCADSGSIFQRYAVGWYRQAPGKEREVVAAFTASGGSTYYADSVKGRFTISRDNAKNTVYLQMNILKPEDTAVYYCATDSYWRQDLYRYEYWGQGTQVTVSS”: the “polyreactivity (PSR sort gate)” value is given as “high polyreactivity”.
Take “QVQLVESGGGLVQAGGSLRLSCADSGSIFRVNAMGWYRQAPGKDRELVAAISSGGSTHYADSVKGRFTISRDNAKNTVYLQMNSLKPEDTAVYYCAVRYALVPYLWYYWGQGTQVTVSS”: the “polyreactivity (PSR sort gate)” value was “high polyreactivity”.
The same measure for “QVQLVESGGGLVQAGGSLRLSCADSGSIFRYNAMGWSRQAPGKERELVAAISGSGGSTYYADSVKGRFTISRDNAKNTVYLQRNSLKPEDTAVYYCNTRVYHYHYSYYPGGYWGQGTQVTVSS”: “high polyreactivity”; for “QVQLVESGGGLVQAGGSLRLSCADSGSTFGYYAMGSYRQAPGKERELVAAITSTGRTKYADSVKGRVTISRDNAKNTVNLQMNSLKPEDTAVYYCAADIWGQGTQVTVSS”: “high polyreactivity”; for “QVQLVESGGGLVQAGGSLRLSCADSGSTFLVYSMGWYRQAPGKERELVAVIDNGGDTYYADSVKGRFTISRDNAKNTVYLQMNSLKPEDTEVYYCAADLSYLGYWEYDYWGQGSQVTVSS”: “low polyreactivity”.
Turning to “QVQLVESGGGLVQAGGSLRLSCADSGSTFTRYGMGWYRQAPGKERELVAAITTSGSSTYYADSVKGRYTISRDNAKNTVYLQMNSLKPEDTAVYYCAADWSSWGFDYWGQGTQVTVSS”, the “polyreactivity (PSR sort gate)” value is recorded as “low polyreactivity”.
For the sequence “QVQLVESGGGLVQAGGSLRLSCADSGSTFWYNAMGWYRQAPGKERELVAAITWSASRTYYADSVKGRFTISRDNAKNTVYLQMNSLKPEDTAVYYCAKASPRYKYFTGDYWGQGTQVTVSS”, the “polyreactivity (PSR sort gate)” value is reported as “high polyreactivity”.
Turning to “QVQLVESGGGLVQAGGSLRLSCADSGSTLQVNAMGWYRQAPGKERELVATISFSGGSTYYADSVKGRFTISRDNAKNTVYLQMNSLNPEDTAVYYCNADSFVSWYNQFWYQATYDYWGQGTQVTVSS”, the “polyreactivity (PSR sort gate)” value is recorded as “low polyreactivity”.
On to “QVQLVESGGGLVQAGGSLRLSCADSGSTPVYAMGWYIQAPGKERELVAAIRRRASSTYYADSVKGRLTISRDNAKNTVYLQMNSLKPEDTAVYYCAVGRLNGVLLGYWGQGTQVTVSS”, for which the “polyreactivity (PSR sort gate)” value is given as “high polyreactivity”.
Take “QVQLVESGGGLVQAGGSLRLSCADSVIIFRVYVMGCYRQAPGKERELVDAISTSGGRTSYADSVKGRFTISRDNAKNTVYLQMNSLKPEDTAVYYCAARPLYSYSQWGYGYWGQGTQVTVSS”: the “polyreactivity (PSR sort gate)” value is recorded as “high polyreactivity”.
Consider “QVQLVESGGGLVQAGGSLRLSCADTGSTFYNYAMGWYRQAHGKERELVAAISSGGSTNYADSVKGLFTISRDNAKNTVYLKMNSLKPEDTAVYYCARRHRVYTSRIGHDYWGQGTQGTVSS”, for which the “polyreactivity (PSR sort gate)” value was “low polyreactivity”.
The same measure for “QVQLVESGGGLVQAGGSLRLSCAGLRIYLPGYARGWYRQAPGKERELVAVISGSGSGTYYADSVKGRFTISRDNAKNTVYLQMNSLKPEDTAVYYCAADDVGRGSTPYDYWGQGTQVTVSS”: “high polyreactivity”; for “QVQLVESGGGLVQAGGSLRLSCAGSGFIFHLYAMGWYRPAPGKERELVAAIRISDGSTYYADSVKGRFTISRDNAKNTVYLLMNSLKPEDTAVYYCNRVRSSYVYVSRFDYWGQGTQVTVSS”: “high polyreactivity”; for “QVQLVESGGGLVQAGGSLRLSCAGSGFTFAYYAMGWYRQAPGKERELVAAITRGGGRTFYADSVKGRFTISRDNAKNTVYLQMNSLKPEDTAVYYCAAVKDTTNSRGYGYWGQGTQVTVSS”: “high polyreactivity”.
“QVQLVESGGGLVQAGGSLRLSCAGSGFTFGKNAMGWYRQAPGKERELVAANSGRGGRTFYADSVKGRFTISRDNAKNTVYLQMNSLKPEDTADYYCAAQRYYDNQYPYEYWGQGTQVTVSS”: the “polyreactivity (PSR sort gate)” value is “high polyreactivity”.
The same measure for “QVQLVESGGGLVQAGGSLRLSCAGSGGIIGSNAMGWYRQAPGKERELVAAINTRGGRTYYADSVKWRFTISRDNAKNTVYLQMNILKPEDTAVYYCATVSYSSRRDRYDYWGQGTQVTVSS”: “high polyreactivity”; for “QVQLVESGGGLVQAGGSLRLSCAGSGRTFQYYAMGCYRQAPGKEMELVAGITGGGSTYYADSVKGRFTISRDNAKNTVYLQMNSLKPEDTAVYYCAADRSYYGYGYWGQGTQVTVSS”: “low polyreactivity”; for “QVQLVESGGGLVQAGGSLRLSCAGSGRTLVLYDRGWSRQAHGKARELVAAITWSGDSTYYADSVKGRFTISRDNAKNTVYLQMNSLKPEDTQVYYCSATYLNAKRGLRDDYWGQGTQVTVSS”: “low polyreactivity”.
Consider “QVQLVESGGGLVQAGGSLRLSCAHSGFTFTYYAMGWYRQAPGKEREFVAGISRSGGSTYYADSVKGRFTISRDIAKNTVYLQMNSLKPEDTAVYYCAATAYSPRGKRYDSWGQGTQVTVSS”, for which the “polyreactivity (PSR sort gate)” value is on record as “high polyreactivity”.
As to “QVQLVESGGGLVQAGGSLRLSCAPAGRTFNGYAMGWYRQAPGKERELVASITLRGGSTYYADSVKGRFTISRDNAKNTVYLQMNSLKPEDTAVYYCNARPHTRRYTFTYGYWGQGTQVTVSS”, the “polyreactivity (PSR sort gate)” value is reported as “high polyreactivity”.
Regarding “QVQLVESGGGLVQAGGSLRLSCAPSGFIFDYNAMGWYRQAPGKERELVAAISISGGGTYYADSVKGRFTISRDNAKNTVYLQMNSLKPEDTAVYYCATAGRYDAYDYWGQGTQVTVSS”, the “polyreactivity (PSR sort gate)” value is listed as “low polyreactivity”.
As for “QVQLVESGGGLVQAGGSLRLSCAPSGFIFEGNAMGWYRQAPGKERELVATISRSGGRTNYADSVKGRFTISRDNAKNTVYLQMNSLKPEDTAVYYCAAAYLRRVAYDYWGQGTQVTVSS”, the “polyreactivity (PSR sort gate)” value is recorded as “high polyreactivity”.
In the case of “QVQLVESGGGLVQAGGSLRLSCAPSGFIFNRNTMGWYRQAPGKERELVAAISFRGTSTYYADSVKGRFTISRDNAKNTVYLQMNSLKPEDTAVYYCNRARILVWSKYGYWGQGTQVNVSS”, the “polyreactivity (PSR sort gate)” value is listed as “high polyreactivity”.
For “QVQLVESGGGLVQAGGSLRLSCAPSGFIFTLYAMGWYRQAPGKERELVASISSGGSTNYADSVKGRFTISRDNAKNTVYLQMHSLKPEATAVYYCDAYYYSKSDRFSGRYGRYYWGQVTQVTVSS”, the “polyreactivity (PSR sort gate)” value is reported as “high polyreactivity”.
Consider “QVQLVESGGGLVQAGGSLRLSCAPSGFIFWRNAMGWYRQAPGKEREFVAAITSSGGRTYYADSVKGRFTISRDNAKNTVYLQMNSLKPEDTAVYYCAAEIRDYAKSYSFYWGQGTQVTVSS”, for which the “polyreactivity (PSR sort gate)” value was “high polyreactivity”.
Next, “QVQLVESGGGLVQAGGSLRLSCAPSGFTFRGNAMGWYRQAPGKERELVATISRGGNTNYADSVKGRCTISRDNAKNTVYLQMNSLKPEDTAVYYCAAVSFIRSKVAYNYWGQGTQVTVSS”: “low polyreactivity”; “QVQLVESGGGLVQAGGSLRLSCAPSGFTFRRNAMGWYRQAPGKERELVAVITSSARTNYADSVKGRFTISRDNAKKTVYLEMNSLKPEDTAVYYCAARYHYGVWRERHGYWGQGTKVTVSS”: “high polyreactivity”; “QVQLVESGGGLVQAGGSLRLSCAPSGFTFSYNAMGWYRQAPGKERELVAAISNSGGSTYYADSVKGRFTISRDNAKYTVYLQMNSLKPEDTAVYYCAADVAQVGYQVGVSEIYPGYEYWGQGTQVTVSS”: “low polyreactivity”.
Take “QVQLVESGGGLVQAGGSLRLSCAPSGGTFPFNAMGWYRQAPGKERELVAAISGRSGRTYYADSVKGRFTISRDNAKNTVDLQMNRLKPEDTAVYYCAARRWRPYDYWGQGTQVTVSS”: the “polyreactivity (PSR sort gate)” value is reported as “high polyreactivity”.
On to “QVQLVESGGGLVQAGGSLRLSCAPSGIIFLGYMGWYRQAPGKEREFVADITFSVDGTYYADSVKGRFTISRDNAKNTVYLQMNSLKPEDNAVYYCAAVSDLQAGTMEYWGQGTEVTVSS”, for which the “polyreactivity (PSR sort gate)” value is given as “high polyreactivity”.
Consider “QVQLVESGGGLVQAGGSLRLSCAPSGIIFRGNAMGWYRQAPGKEREFVAAISLRGSRTYYADSVKGRFTISRDNAKNTVYLQMNSLKQEDTAVYYCAATRPYRYNYWGQGTQVTVSS”, for which the “polyreactivity (PSR sort gate)” value is “high polyreactivity”.
As for “QVQLVESGGGLVQAGGSLRLSCAPSGIIFSPNAMGLYRQAPGKERELVASISSDSSTNYADSVKGRFSISRDNAKNTVYLQMNSLKPEYTAVYYCAADFVVGQAGDWTFWFDYWGQGTQVTVSS”, the “polyreactivity (PSR sort gate)” value was “low polyreactivity”.
Take “QVQLVESGGGLVQAGGSLRLSCAPSGIIFYGNAMGWYRPAPGKERELVAAITRSGVRTYYADSVKGRFTISRDNAKKTGYLQMNSLNPEDSAVSYCAAVKPVSSRHYPYDYWGQGTQVTVSS”: the “polyreactivity (PSR sort gate)” value is “high polyreactivity”.
Consider “QVQLVESGGGLVQAGGSLRLSCAPSGITFRSYAMGWYRQAPGKERELVATISWSGGITYYADSVKGRFTISRDNAKNTVYLQMNSLKPEDTAVYYCATASQSWGRDDYYYWGQGTQVTVSS”, for which the “polyreactivity (PSR sort gate)” value is “low polyreactivity”.
Consider “QVQLVESGGGLVQAGGSLRLSCAPSGITFWYYAMGWYRQAPGKERELVAAINKSGGRTYYADSVKGRFTISRDNAKNTVYLQMNSLKPEDTAVYYCAAPRSRSRTSRFDYWGQGTQVTVSS”, for which the “polyreactivity (PSR sort gate)” value was “high polyreactivity”.
In the case of “QVQLVESGGGLVQAGGSLRLSCAPSGITLDSNAMGWYRQARGKERELVAAINWSTGSTYYADSVKGRFTISRDNAKNTVYLQMNSLKPEDTAVYYCAVDYRYGYFVYVHYEYWGQGTQETVSS”, the “polyreactivity (PSR sort gate)” value was “high polyreactivity”.
Next, “QVQLVESGGGLVQAGGSLRLSCAPSGLIFDANAMGWYRQAPGKERELVAAISNGDSTYYADSVKGRFTISRDNAKNTLYLQMNSLKPEDTAVYYCNARIIYRKWLLRSGTFNYWGQGTQVTVSS”: “low polyreactivity”; “QVQLVESGGGLVQAGGSLRLSCAPSGLIFKKYTMGGYRQSPGKERELVASISKSGGSTYYADSVKGRFTFSRDNAKNTYYLQMNCLKPEDTAVYYCNRVSHYIRFDYWVQGTQVTVSS”: “low polyreactivity”.
The same measure for “QVQLVESGGGLVQAGGSLRLSCAPSGNTFFLNAMGWYRQAPGKERELVAAITSSGGSTYYADSVKGRFTISRDNAKNTVYLQMNSLKPEDTAVYYCGTDRSYPPRSLNRRGPYEYWGQGTQVTVSS”: “low polyreactivity”; for “QVQLVESGGGLVQAGGSLRLSCAPSGRTFCPYAMGWYRKAPGKERELVAAISSSGSTTYYADSVKGRFTISRDNAKNTVYLQMNSLKPEDNAVYYCAAVYLRGDGEYDYWGQVTQVTVSS”: “low polyreactivity”.
On to “QVQLVESGGGLVQAGGSLRLSCAPSGRTFRFYVMGWYRQAPGKERELVAAISRGGGSTYYADSVKGRFTISRDNAKNTVYLQMNSLKPEDTAVYYCAAKPYKTRSSYWGDYYWGQGTQVTVSS”, for which the “polyreactivity (PSR sort gate)” value was “high polyreactivity”.
